Measurements as given in US20260217825A1 (CHIMAGEN BIOSCIENCES, published 2026).
Like-named read-outs stand apart in the source and are kept apart here.

Key:
human GPRC5D on cells [1] = molecular target: T1, human GPRC5D on cells (human, UniProt Q9NZD1 1-345); test: flow cytometry, MM.1R cell binding
T1 construct: whole, on cells; Either overexpressed in HEK293, CHOS or HEK293T cells, or naturally expressed on human myeloma cell lines; also called hGPRC5D; HEK293-hGPRC5D
Procedure: (§1) After the cells were digested with TrypLE, the digested cells were centrifuged and resuspended in a DPBS solution containing 2% BSA (FACS buffer, 4° C.), added into a 96-well plate with a U-shaped bottom in an amount of 5× 10⁵ cells/100 μl/well, added with antibody diluted over concentration gradient, and incubated at 4° C. for 1 hr. After centrifugation, the supernatant was discarded. 100 μl of anti-human IgG Fc-APC secondary antibody was added to each well and incubated at 4° C. for 1 hr. Then the cells were washed once with a FACS buffer, and resuspended in 200 μl FACS buffer. The fluorescence signal was read on BD CantoII.

human GPRC5D on cells [2] = molecular target: T1, human GPRC5D on cells; test: flow cytometry, NCI-H929 cell binding
Procedure: as §1

human GPRC5D on cells [3] = molecular target: T1, human GPRC5D on cells; test: flow cytometry, RPMI-8226 cell binding
Procedure: as §1

human GPRC5D on cells [4] = molecular target: T1, human GPRC5D on cells; test: FACS on MM.1R cells (natural GPRC5D), anti-human IgG Fc-APC secondary; fit table under the curves
Procedure: as §1

human GPRC5D on cells [5] = molecular target: T1, human GPRC5D on cells; test: FACS on NCI-H929 cells (natural GPRC5D), anti-human IgG Fc-APC secondary; fit table under the curves
Procedure: as §1

human GPRC5D on cells [6] = molecular target: T1, human GPRC5D on cells; test: FACS on RPMI-8226 cells (natural GPRC5D), anti-human IgG Fc-APC secondary; fit table under the curves
Procedure: as §1

human GPRC5D on cells [7] = molecular target: T1, human GPRC5D on cells; test: FACS on CHOS cells expressing hGPRC5D (sheet title: CHOS-hGPRC5D sorted), anti-human IgG Fc-APC secondary; fit table under the curves
Procedure: (§2) After centrifugation, […] and CHOS-hGPRC5D cells expressing hGPRC5D were resuspended in a DPBS solution (FACS buffer, 4° C.) containing 2% BSA, added to a 96-well plate with a U-shaped bottom in an amount of 5×10⁵ cells/100 μl/well, added with antibody diluted over concentration gradient, and incubated at 4° C. for 1 hr. After centrifugation, the supernatant was discarded. 100 μl of anti-human IgG Fc-APC secondary antibody was added to each well and incubated at 4° C. for 1 hr. Then the cells were washed once with a FACS buffer, and resuspended in 200 μl FACS buffer. The fluorescence signal was read on BD CantoII.

human GPRC5D on cells [8] = molecular target: T1, human GPRC5D on cells; test: FACS on HEK293 cells expressing hGPRC5D (sheet title: 293T-hGPRC5D sorted), anti-human IgG Fc-APC secondary; fit table under the curves
Procedure: as §2

human GPRC5D on cells [9] = molecular target: T1, human GPRC5D on cells; test: FACS on CHOS cells expressing hGPRC5D (sheet title: CHOS-hGPRC5D sorted), anti-human IgG Fc-APC secondary; fit table under the curves, unit from the axis Log Conc.(ug/ml)
Procedure: as §2

human GPRC5D on cells [10] = molecular target: T1, human GPRC5D on cells; test: FACS on HEK293 cells expressing hGPRC5D (sheet title: 293T-hGPRC5D sorted), anti-human IgG Fc-APC secondary; fit table under the curves, unit from the axis Log Conc.(ug/ml)
Procedure: as §2

[11] = molecular target: T2, recombinant GPRC5D antigen (Human GPRC5D protein-Flag-His tag (51.8KD) ACRO Cat: GPD-H52D3) (human, UniProt Q9NZD1 1-345, limits assumed); test: BLI (Octet R8), recombinant GPRC5D antigen
T2 construct: Bought protein; also called CPRG5D; not shown: Flag-His tag
T2 sequence (Q9NZD1 whole entry): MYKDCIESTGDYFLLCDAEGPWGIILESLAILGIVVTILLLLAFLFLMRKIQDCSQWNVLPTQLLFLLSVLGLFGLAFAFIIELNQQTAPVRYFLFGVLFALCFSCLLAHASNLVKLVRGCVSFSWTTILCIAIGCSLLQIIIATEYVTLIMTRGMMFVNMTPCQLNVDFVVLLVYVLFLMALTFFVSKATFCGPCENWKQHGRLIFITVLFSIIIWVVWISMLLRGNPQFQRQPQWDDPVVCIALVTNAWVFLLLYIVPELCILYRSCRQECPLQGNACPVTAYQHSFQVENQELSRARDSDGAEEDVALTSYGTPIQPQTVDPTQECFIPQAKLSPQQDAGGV
Text: The recombinant GPRC5D antigen (Human GPRC5D protein-Flag-His tag (51.8KD) ACRO Cat: GPD-H52D3) was immobilized on a chip and detected by Octet® R8 biomolecular interaction analysis system.

[12] = molecular target: T3, recombinant CD3e antigen (Human CD3 epsilon Protein, His Tag, ACRO Cat: CDE-H5223) (human, UniProt P07766 23-126); test: BLI (Octet R8), recombinant CD3e antigen
T3 construct: Bought protein; also called CD3 antigen; not shown: His tag
T3 sequence (P07766 23-126 limits assumed): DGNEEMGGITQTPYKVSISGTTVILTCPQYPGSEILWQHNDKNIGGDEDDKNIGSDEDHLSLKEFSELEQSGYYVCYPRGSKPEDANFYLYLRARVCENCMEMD
Text: (§3) The recombinant CD3e antigen (Human CD3 epsilon Protein, His Tag, ACRO Cat: CDE-H5223) and recombinant GPRC5D antigen (Human GPRC5D protein-Flag-His tag (51.8KD) ACRO Cat: GPD-H52D3) were immobilized on a chip and detected by Octet® R8 biomolecular interaction analysis system.

[13] = molecular target: T2, recombinant GPRC5D antigen (Human …); test: BLI (Octet R8), recombinant GPRC5D antigen; remark: listed apart in the source
Text: as §3

human GPRC5D on cells [14] = molecular target: T1, human GPRC5D on cells; test: cell-based binding assay on HEK293T-hGPRC5D
Procedure: (§4) HEK293T-hGPRC5D or HEK293T-cynoGPRC5D cells in logarithmic growth phase were inoculated into a 96-well culture plate, and the antibodies at different concentrations (200, 66.7, 22.22, 7.41, 2.47, 0.82, 0.27, 0.09, 0.03, and 0.01 nM) was added. 2 duplicate wells were set for each concentration and a negative control (PBS) well was also set. The cells were incubated at 25° C. for about 60 minutes and then developed and detected. The raw data of the test was the difference between the detection wavelength and the reference wavelength. A dose-response curve was fitted using statistical software, based on OD value and the logarithmic value of the concentration, from which the EC50 was obtained.

[15] = molecular target: T4, cynomolgus monkey GPRC5D on HEK293T cells (cynomolgus monkey); test: cell-based binding assay on HEK293T-cynoGPRC5D
T4 construct: whole, on cells; also called HEK293T-cynoGPRC5D; Cynomolgus GPRC5D
Procedure: as §4

T1 sequence (Q9NZD1 whole entry): as the sequence (Q9NZD1 whole entry) above

B1: ch-72C7 chimeric recombinant antibody (antibody, V domains shown)
VH: QVQLQQPGAELVKPGTSVKLSCKASGYPFTNYWMHWVRQRPGQGLEWIGEINPSNGRTNYNEKFKSLATLTLDKSSSTAYMHLNSLTSEDSAVYYCARGFAYWGQGTLVTVSA
VL: QIVLSQFPAIMSASPGEKVTMTCSASSSVSFMHWYQQKSGTSPKRWIYDTTKLASGVPARFTGSGSGTSYSLTISSMEAEDAATYYCQQWNSHPLTFGPGTKLELK
notes: also called ch-72C7 antibody; antibody ch-72C7
Human GPRC5D on cells [1]
  EC50: 0.62 µg/mL
Human GPRC5D on cells [2]
  EC50: 0.485 µg/mL
Human GPRC5D on cells [3]
  EC50: 0.916 µg/mL
Human GPRC5D on cells [4]
  LogEC50: -0.207 log(ug/ml)
Human GPRC5D on cells [5]
  LogEC50: -0.314 log(ug/ml)
Human GPRC5D on cells [6]
  LogEC50: -0.0379 log(ug/ml)
Human GPRC5D on cells [7]
  LogEC50: 0.198 log(ug/ml)
Human GPRC5D on cells [8]
  LogEC50: -0.309 log(ug/ml)
Human GPRC5D on cells [9]
  EC50: 1.58 µg/mL
Human GPRC5D on cells [10]
  EC50: 0.49 µg/mL

B2: humanized antibody 22Mono5JO4 (antibody, human IgG1, V domains shown)
VH: QVQLVQSGAEVKKPGSSVKVSCRASGYPFTNYWMHWVRQAPGQGLEWIGEINPSNGRTNYNEKFKSRATLTLDKLTSTAYMELSSLTSEDTALYYCARGFAYWGQGTLVTVSS
VL: EIVLTQSPGTLSLSPGERATLSCSASSSVSFMHWYQQKPGQAPRRWIYDTTKLASGIPDRFSGSGSGTDYTLTISRLEPEDFAVYYCQQWNSHPLTFGQGTTVEIK
[11]
  Kd: 0.787 nM
  koff: 0.000119 s⁻¹
  kon: 151000 M⁻¹ s⁻¹

B3: humanized antibody 22Mono3L7F (antibody, human IgG1, V domains shown)
VH: EVTLKESGPVLVKPTETLTLTCTASGYPFTNYWMHWVRQPPGKALEWIGEINPSNGRTNYNEKFKSRATLSLDKSKSQAVLTMTNMDPVDTATYYCARGFAYWGQGTLVTVSS
VL: EIVLTQSPATLSLSPGERATLSCSASSSVSFMHWYQQKPGQAPRRWIYDTTKLASGIPARFSGSGSGTDYTLTISSLEPEDFAVYYCQQWNSHPLTFGQGTKLEIK
notes: also called 22monoO3L7
[11]
  Kd: 25.6 nM
  koff: 0.002 s⁻¹
  kon: 78000 M⁻¹ s⁻¹

B4: humanized antibody 22Mono4DN4 (antibody, human IgG1, V domains shown)
VH: ELVQSGAEVKKPGSSVKVSCKASGYPFTNYWMHWVRQAPGQGLEWIGEINPSNGRTNYNEKFKSRATLTLDKSTSTAYMELSSLRSEDTAVYYCARGFAYWGQGTLVTVSS
VL: EIVLTQSPATLSLSPGERATLSCSASSSVSFMHWYQQKPGQAPRRWIYDTTKLASGVPARFSGSGSGTDYTLTISSLEPEDFAVYYCQQWNSHPLTFGQGTKVEIK
[11]
  Kd: 16.9 nM
  koff: 0.00114 s⁻¹
  kon: 67300 M⁻¹ s⁻¹

B5: humanized antibody 22Mono5UQY (antibody, human IgG1, V domains shown)
VH: QVQLQESGPGLVKPSETLSLTCTASGYPFTNYWMHWVRQPPGKGLEWIGEINPSNGRTNYNEKFKSRATLSLDKSKNQASLNLDSVSAADTAIYYCARGFAYWGKGSTVTVSS
VL: AIQLTQSPSSLSASVGDRVTITCSASSSVSFMHWYQQKPGKAPKRWIYDTTKLASGVPSRFSGSGSGTDYTFTISSLQPEDIATYYCQQWNSHPLTFGPGTKVDIK
notes: also called 22MonoSUQY
[11]
  Kd: 5.67 nM
  koff: 0.000489 s⁻¹
  kon: 86200 M⁻¹ s⁻¹

B6: humanized CD3xGPRC5D bispecific antibody 22A8 (Structure D) (bispecific antibody)
heavy 1: QVQLVQSGAEVKKPGSSVKVSCRASGYPFTNYWMHWVRQAPGQGLEWIGEINPSNGRTNYNEKFKSRATLTLDKLTSTAYMELSSLTSEDTALYYCARGFAYWGQGTLVTVSSASTKGPSVFPLAPSSKSTSGGTAALGCLVKDYFPEPVTVSWNSGALTSGVHTFPAVLQSSGLYSLSSVVTVPSSSLGTQTYICNVNHKPSNTKVDKKVEPKSCDKTHTCPPCPAPPVAGPSVFLFPPKPKDTLMISRTPEVTCVVVDVSQEDPEVKFNWYVDGVEVHNAKTKPREEQFNSTYRVVSVLTVLHQDWLNGKEYKCKVSNKGLPSSIEKTISKAKGQPREPQVYTLPPSRDELTKNQVSLSCAVKGFYPSDIAVEWESNGQPENNYKTTPPVLDSDGSFFLVSKLTVDKSRWQQGNVFSCSVMHEALHNRFTQKSLSLSP
light: EIVLTQSPGTLSLSPGERATLSCSASSSVSFMHWYQQKPGQAPRRWIYDTTKLASGIPDRFSGSGSGTDYTLTISRLEPEDFAVYYCQQWNSHPLTFGQGTTVEIKRTVAAPSVFIFPPSDEQLKSGTASVVCLLNNFYPREAKVQWKVDNALQSGNSQESVTEQDSKDSTYSLSSTLTLSKADYEKHKVYACEVTHQGLSSPVTKSFNRGEC
heavy 2: EVQLVESGGGLVQPGGSLRLSCAASGFTFSTYAMNWVRQAPGKGLEWVGRIRSKYNNYATYYADSVKGRFTISRDDSKNSLYLQMNSLRAEDTAVYYCVRHGNFGTSYVSWFAYWGQGTLVTVSSASTKGPSVFPLAPSSKSTSGGTAKLGCLVKDYFPEPVTVSWNSGALTSGVHTFPACLQSSGLYSLSSVVTVPSSSLGTQTYICNVNHKPSNTKVDKKVEPKSSDKTHTCPPCPAPELLAGPDVFLFPPKPKDTLMISRTPEVTCVVVDVSHEDPEVKFNWYVDGVEVHNAKTKPREEQYNSTYRVVSVLTVLHQDWLNGKEYKCKVSNKALPLPEEKTISKAKGQPREPQVYTLPPSRDELTKNQVSLWCLVKGFYPSDIAVEWESNGQPENNYKTTPPVLDSDGSFFLYSKLTVDKSRWQQGNVFSCSVMHEALHNHYTQKSLSLSP
chain: QVQLVQSGAEVKKPGSSVKVSCRASGYPFTNYWMHWVRQAPGQGLEWIGEINPSNGRTNYNEKFKSRATLTLDKLTSTAYMELSSLTSEDTALYYCARGFAYWGQGTLVTVSSASTKGPSVFPLAPSSKSTSGGTAALGCLVKDYFPEPVTVSWNSGALTSGVHTFPAVLQSSGLYSLSSVVTVPSSSLGTQTYICNVNHKPSNTKVDKKVEPKSCDGGGGSGGGGSQAVVTQEPSLTVSPGGTVTLTCRSSTGAVTTSNYANWVQQKPGQAPRGLIGGTNKRAPWTPARFSGSLLGGKAALTLSGAQAEDEADYYCALWYSNLWVFGGGTKLTVLRTVAAPSVDIFPPSDEQLKSGTASVVCLLNNFYPREAKVQWKVDNALQSGNSCESVTEQDSKDSTYSLSSTLTLSKADYEKHKVYACEVTHQGLSSPVTKSFNRGES
notes: First polypeptide: VH1(GPRC5D, humanized)-CH1a-Fc; Second and fifth polypeptides are identical: VL(GPRC5D, humanized)-CLa; Third polypeptide: VH2(CD3)-CH1b-Fc; Fourth polypeptide: VH3(GPRC5D, humanized)-CH1a-linker-VL2(CD3)-CLb; Fc mutations are knob-into-hole (T366W; Y407V, T366S, L368A)
[12]
  Kd: 30 nM
  koff: 0.00381 s⁻¹
  kon: 127000 M⁻¹ s⁻¹
[13]
  Kd: 9.47 nM
  koff: 0.000596 s⁻¹
  kon: 62900 M⁻¹ s⁻¹
Human GPRC5D on cells [14]
  EC50: 3.86 nM
[15]
  EC50: 10.1 nM
